± gives the standard error. This sample holds only a part of the variants without activity.
B1: glmS ribozyme (parent)
chain: AUAAAAGCGCCAGAACUACAGAAAUGUAGUUGACGAGGAGGAGGUUUAUCGAAUUUUCGGCGGAUGCCUCCAAA

Key:
Conditions in all cases: with glucosamine-6-phosphate
glucosamine-6-phosphate [1] = variants of: B1; assay: self-cleavage kobs at 160 uM GlcN6P; higher = faster cleavage; RNA array
How it was run: (§1)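 Sequenced MiSeq chips were the platform: E. coli RNA polymerase transcribed barcoded ribozyme variants on them in situ, and a hybridised Cy3 probe tracked these at 37 °C. After glucosamine-6-phosphate (40 μM to 10 mM) in HEPES/KCl/Mg(OAc)2 buffer was flowed in, tiles were imaged over ~14 h. Signals normalised to baseline and to non-cleaving reference variants were reduced to per-tile medians and fit to one- or two-exponential decays to obtain kobs. kcat and KM were derived through weighted Michaelis–Menten fits across concentrations.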

glucosamine-6-phosphate [2] = variants of: B1; assay: self-cleavage kobs at 640 uM GlcN6P; higher = faster cleavage; RNA array
How it was run: as §1

glucosamine-6-phosphate [3] = variants of: B1; assay: self-cleavage kobs at 2500 uM GlcN6P; higher = faster cleavage; RNA array
How it was run: as §1

glucosamine-6-phosphate [4] = variants of: B1; assay: self-cleavage kobs at 10000 uM GlcN6P; higher = faster cleavage; RNA array
How it was run: as §1

Row | Variant | self-cleavage kobs at 160 uM GlcN6P (glucosamine-6-phosphate [1]) | self-cleavage kobs at 640 uM GlcN6P (glucosamine-6-phosphate [2]) | self-cleavage kobs at 2500 uM GlcN6P (glucosamine-6-phosphate [3]) | self-cleavage kobs at 10000 uM GlcN6P (glucosamine-6-phosphate [4])
1 | AUAAAAGCGACAGAACUACAGAAAUGUAGUUGACGAGGAGGAGGUUUAUCGAAUUUUCGGCGGAUGCCUACAAA [C10A C70A] | 6.28e-05 ± 1.3e-05 s⁻¹ | 0.000194 ± 3.9e-05 s⁻¹ | 6.82e-05 ± 1.9e-05 s⁻¹ | –
2 | AUAAAAGCGCCAGAACUACAGAAAUGUAGUUGACGGGGAGGAGGUUUAUCGAAUUUGCGGCGGAUGCCUCCAAA [A36G U57G] | < 1e-05 s⁻¹ | < 1e-05 s⁻¹ | < 1e-05 s⁻¹ | < 1e-05 s⁻¹
3 | AUAAAAGCGCCAGAACUACAGAAAUGUAGUUGACGCGGAGGAGGUUUAUCGAAUUUUCAGCGGAUGCCUCGAAA [A36C G59A C71G] | < 1e-05 s⁻¹ | – | – | < 1e-05 s⁻¹
4 | AUAAAAGCGCCACAACUACAGAAAUGUAGUGGACGAGGAGGAUGUUUAUCGAAUUUUCGGCGGAUGCCUCCAAA [G13C U31G G43U] | < 1e-05 s⁻¹ | – | < 1e-05 s⁻¹ | –
5 | AUAAAAGCUCCAGAACUACAGAAAUGUAGUUGACGAGGAGGAGGUUUAUCGAAUUCUCGGCCGAUGCCUCCAAA [G9U U56C G62C] | < 1e-05 s⁻¹ | < 1e-05 s⁻¹ | – | –
6 | AUAAAAGCGCCAGUACUACAGAAAUGUAGUUGACGAGGAGGAGGUUGAUCGAAUUUUCGGCGGAUGCGUCCAAA [A14U U47G C68G] | 7.2e-05 ± 2.9e-05 s⁻¹ | 0.000125 ± 2.8e-05 s⁻¹ | 5.08e-05 ± 2.3e-05 s⁻¹ | –
7 | AUAAAAGCGCCAGAACUACAGAAAUGUAGUUGAUGAGGAGGAGGUUUAUCCAAUUUUCGGCGGAUGCCUCCAAA [C34U G51C] | < 1e-05 s⁻¹ | < 1e-05 s⁻¹ | < 1e-05 s⁻¹ | < 1e-05 s⁻¹
8 | AUAAAAGCGCCAGAACUACAGAAAUGUAGUUGACGAGGAGGAAGUUUAUCGAAUUUUUGGCGGAUGCCUCCAAA [G43A C58U] | < 1e-05 s⁻¹ | < 1e-05 s⁻¹ | – | < 1e-05 s⁻¹
9 | AUAAAAGCGCCAGAACUACAGAAAUGUAGAUGACCAGGAGGAGGUUUAUGGAAUUUUCGGCGGAUGCAUCUAAA [U30A G35C C50G C68A C71U] | 8.36e-05 ± 2.8e-05 s⁻¹ | 0.00197 ± 0.00057 s⁻¹ | 0.000671 ± 0.00025 s⁻¹ | –
10 | AUAAAAGCGCCAGAACUACAGAAAUGUAGUUGACGAGGAGGCGGUUAAUCGAAUUUUCGGCGGAUGCCUCCAAA [A42C U47A] | < 1e-05 s⁻¹ | – | < 1e-05 s⁻¹ | –
11 | AUAAAAGAGCCAGAACUACAGAAAUGUAGUUGACGAGGAGGAGGUUUAUCGAAUUUUCGGUGGCUGUCUCCAAA [C8A C61U A64C C67U] | < 1e-05 s⁻¹ | < 1e-05 s⁻¹ | < 1e-05 s⁻¹ | –
12 | AUAAAAGCGCAAGCACUACAGAAAUGUAGUUGACAAGGAGGAGGUUUAUGGAAUUUUCGGCGGAUGCCUCGAAA [C11A A14C G35A C50G C71G] | 0.000211 ± 3.9e-05 s⁻¹ | 0.000433 ± 0.00014 s⁻¹ | 0.000131 ± 4.3e-05 s⁻¹ | –
13 | AUAAAAGCUCCAGAACUACAGAAAUGUAGUUGCCGAGGAGGAGGUUUAUCGAAUUUUCGGCGGAUGCCUCCAAA [G9U A33C] | < 1e-05 s⁻¹ | < 1e-05 s⁻¹ | < 1e-05 s⁻¹ | < 1e-05 s⁻¹
14 | AUAAAAGCGCCAGAACUACAGAAAUGUAGUUGCCGAGGAGGAGGUUUAUCGAAUUUUCGGCGGAUGCCCCCAAA [A33C U69C] | < 1e-05 s⁻¹ | < 1e-05 s⁻¹ | – | –
15 | AUAAAAGUGCCAGAACUACAGAAAUGUAGUUGACGAGGAGGGGGUUUAUCGAAUUUUCGGCGAAUGCCUCCAAA [C8U A42G G63A] | < 1e-05 s⁻¹ | < 1e-05 s⁻¹ | < 1e-05 s⁻¹ | –
16 | AUAAAAGCGCCGGAACUACAGAAAUGUAGUUGACGAGGAGGAGGUUUAUCUAAUUUUCGGCGGAUACCUCCAAA [A12G G51U G66A] | < 1e-05 s⁻¹ | – | < 1e-05 s⁻¹ | –
17 | AUAAAAGCCCCAGAACUACAGAAAUGUAGUUGACGAGGAGGAGUUUUAUCGAAUUUUCGGCGGAUGCCUCCAAA [G9C G44U] | < 1e-05 s⁻¹ | < 1e-05 s⁻¹ | < 1e-05 s⁻¹ | < 1e-05 s⁻¹
18 | AUAAAAGCGUCAGAACUACAGAAAUGUAGUUGACGAGGAGGAGAUUUAUCGAAUUUCCGGCAGAUGCCUCCAAA [C10U G44A U57C G62A] | < 1e-05 s⁻¹ | < 1e-05 s⁻¹ | – | –
19 | AUAAAAGCGCCAGAACUACAGAAAUGUAGUUGACGAGGAGGAGGUUUAUCGAAUUUCCGGCCGAUGCCUCCAAA [U57C G62C] | < 1e-05 s⁻¹ | < 1e-05 s⁻¹ | < 1e-05 s⁻¹ | < 1e-05 s⁻¹
20 | AUAAAAGCGCCAGAACUACAGAAAUGUAGUUGACGAGGAGUAGGUUUAUCGAAUUUUUGGCGGAUGCCUCCAAA [G41U C58U] | < 1e-05 s⁻¹ | < 1e-05 s⁻¹ | – | –
21 | AUAAAAGCGCCAGAACUACAGAAAUGUAGUUGACGAGGCGGAGGUUUAUCAAAUUUUCGGAGGAUGCCUCCAAA [A39C G51A C61A] | < 1e-05 s⁻¹ | – | < 1e-05 s⁻¹ | –
22 | AUAAAAGAGCCAGAACUACAGAAAUGUAGUUGACGAGGAGGAGGUUUAUCUAAUUUUCGGCGGAUGCCUCCAAA [C8A G51U] | < 1e-05 s⁻¹ | < 1e-05 s⁻¹ | – | –
23 | AUAAAAGCACCAGAACUACAGAAAUGUAGUUGAAGAGGAGGAGGUUUAUCGAAUUUUCGGCGGAUGCCUCCAAA [G9A C34A] | < 1e-05 s⁻¹ | < 1e-05 s⁻¹ | < 1e-05 s⁻¹ | < 1e-05 s⁻¹
24 | AUAAAAACGCCAGAACUACAGAAAUGUAGUUUACGAGGAGGACGUUUAUCGAAUUUUCGGCGGAUGCCUCCAAA [G7A G32U G43C] | < 1e-05 s⁻¹ | < 1e-05 s⁻¹ | – | –
25 | AUAAAAGCGCCAGAAUUACAGAAAUGUAGUUGACGAGGAGGAGGUUUAUCGAAUUUUCGCCGGAUGCCUCCAAA [C16U G60C] | < 1e-05 s⁻¹ | < 1e-05 s⁻¹ | < 1e-05 s⁻¹ | –
26 | AUAAAAGCGCCAGAACUACAGAAAUGUAGUUGACGAGGAGGUGGUUUAACGAAUUUUCGGCGGAUGCCUCCAAA [A42U U49A] | < 1e-05 s⁻¹ | < 1e-05 s⁻¹ | < 1e-05 s⁻¹ | < 1e-05 s⁻¹

Source: the supplement of paper PMC7125110
